Our source for the Kd values is the supplement of paper PMC6379048.

Holding throughout (experiment): Kd (EC50 corrected by depletion factor)
One data set concerns the target T1, SF3B2 (UniProt Q13435).
T1 sequence: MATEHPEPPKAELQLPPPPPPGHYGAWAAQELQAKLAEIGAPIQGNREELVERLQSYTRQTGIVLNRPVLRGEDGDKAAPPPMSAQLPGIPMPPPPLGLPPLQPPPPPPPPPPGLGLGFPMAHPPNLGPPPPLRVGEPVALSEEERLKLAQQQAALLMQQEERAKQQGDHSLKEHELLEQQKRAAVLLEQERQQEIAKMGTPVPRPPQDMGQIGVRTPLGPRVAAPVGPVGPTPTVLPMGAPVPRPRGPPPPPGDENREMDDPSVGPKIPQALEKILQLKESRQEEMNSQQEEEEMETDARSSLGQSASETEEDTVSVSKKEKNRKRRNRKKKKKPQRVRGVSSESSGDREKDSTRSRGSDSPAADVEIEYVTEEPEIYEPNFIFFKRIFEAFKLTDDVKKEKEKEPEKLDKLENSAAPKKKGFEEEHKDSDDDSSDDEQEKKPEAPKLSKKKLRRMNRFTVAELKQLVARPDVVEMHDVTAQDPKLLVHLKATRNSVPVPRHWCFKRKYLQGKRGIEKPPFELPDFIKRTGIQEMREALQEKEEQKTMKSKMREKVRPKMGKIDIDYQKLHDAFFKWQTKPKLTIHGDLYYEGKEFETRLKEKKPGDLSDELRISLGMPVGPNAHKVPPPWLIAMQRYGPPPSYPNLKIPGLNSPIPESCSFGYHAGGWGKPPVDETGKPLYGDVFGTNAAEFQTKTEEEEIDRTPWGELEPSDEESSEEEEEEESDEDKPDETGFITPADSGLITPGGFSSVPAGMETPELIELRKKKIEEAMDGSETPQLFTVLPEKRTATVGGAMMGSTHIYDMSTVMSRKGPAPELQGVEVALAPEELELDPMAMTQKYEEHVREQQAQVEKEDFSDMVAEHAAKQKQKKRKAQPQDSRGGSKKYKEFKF
The essentials:
(§1)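 To obtain EC50, data were fitted with a four-parameter log-logistic model; Kd was then EC50 multiplied by a protein-dependent depletion factor. Beforehand, free RNA oligos (0 nM to 30 μM) were pre-incubated with HEK293-FT lysate (2.5 mg protein/well) for 1 h at 4°C. The lysate then spent 30 min at 4°C with the same 5′-amino-C6 oligos coupled to NHS-Sepharose beads, and bound proteins were quantified by label-free LC-MS/MS, normalised to the control.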

A further data set addresses T2, RBM47 (UniProt A0AV96).
T2 sequence: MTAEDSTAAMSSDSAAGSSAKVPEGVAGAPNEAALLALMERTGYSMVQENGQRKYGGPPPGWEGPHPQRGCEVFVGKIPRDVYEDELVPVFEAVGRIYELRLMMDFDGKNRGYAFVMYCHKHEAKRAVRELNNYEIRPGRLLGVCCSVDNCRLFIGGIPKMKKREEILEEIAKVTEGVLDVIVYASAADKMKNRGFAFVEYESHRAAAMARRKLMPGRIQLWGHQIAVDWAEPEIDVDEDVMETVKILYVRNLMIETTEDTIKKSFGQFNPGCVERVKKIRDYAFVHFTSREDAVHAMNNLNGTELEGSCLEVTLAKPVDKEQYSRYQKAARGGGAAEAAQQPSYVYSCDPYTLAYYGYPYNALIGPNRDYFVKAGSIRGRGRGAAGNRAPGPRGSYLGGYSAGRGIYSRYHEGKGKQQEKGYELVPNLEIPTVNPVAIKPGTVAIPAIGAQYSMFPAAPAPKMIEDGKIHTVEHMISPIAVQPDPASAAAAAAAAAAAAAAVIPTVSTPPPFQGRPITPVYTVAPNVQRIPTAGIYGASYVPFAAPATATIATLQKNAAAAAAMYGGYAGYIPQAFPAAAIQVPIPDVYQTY
The essentials: as §1

The target in a further data set is T3, ZRANB2 (UniProt O95218).
T3 sequence: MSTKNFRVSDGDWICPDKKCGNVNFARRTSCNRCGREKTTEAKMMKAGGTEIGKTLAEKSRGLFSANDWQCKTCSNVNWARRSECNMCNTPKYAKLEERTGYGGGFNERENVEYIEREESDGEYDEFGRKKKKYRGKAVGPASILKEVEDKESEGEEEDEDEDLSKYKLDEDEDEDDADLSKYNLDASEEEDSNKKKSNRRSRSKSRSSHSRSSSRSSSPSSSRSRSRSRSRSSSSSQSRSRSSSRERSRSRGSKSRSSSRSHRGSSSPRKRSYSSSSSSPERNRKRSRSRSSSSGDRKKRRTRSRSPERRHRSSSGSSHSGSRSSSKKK
The essentials:
as §1

The next data set has as its target MRPL22 (UniProt Q9NWU5). The essentials: as §1
A further data set addresses MRPL49 (UniProt Q13405). An outline of the steps: as §1
Another data set concerns the target SKIV2L (UniProt Q15477). The essentials: as §1
In the next data set the target is T4, CSTF1 (UniProt Q05048).
T4 sequence: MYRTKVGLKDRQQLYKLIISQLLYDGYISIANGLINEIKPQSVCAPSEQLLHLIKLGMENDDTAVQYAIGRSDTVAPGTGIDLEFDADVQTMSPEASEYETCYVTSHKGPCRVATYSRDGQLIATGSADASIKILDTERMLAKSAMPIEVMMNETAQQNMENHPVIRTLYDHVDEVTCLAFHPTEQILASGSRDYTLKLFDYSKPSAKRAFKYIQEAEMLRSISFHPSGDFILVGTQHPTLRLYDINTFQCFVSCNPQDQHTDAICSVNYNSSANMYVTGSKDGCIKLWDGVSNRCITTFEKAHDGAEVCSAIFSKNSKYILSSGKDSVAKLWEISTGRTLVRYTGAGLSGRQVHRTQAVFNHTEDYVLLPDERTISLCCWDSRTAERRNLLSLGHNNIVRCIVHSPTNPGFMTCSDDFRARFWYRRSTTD
The essentials:
as §1

Another data set deals with TARDBP (UniProt Q13148). An outline of the steps:
as §1

Sequence of TARDBP (Q13148 whole entry): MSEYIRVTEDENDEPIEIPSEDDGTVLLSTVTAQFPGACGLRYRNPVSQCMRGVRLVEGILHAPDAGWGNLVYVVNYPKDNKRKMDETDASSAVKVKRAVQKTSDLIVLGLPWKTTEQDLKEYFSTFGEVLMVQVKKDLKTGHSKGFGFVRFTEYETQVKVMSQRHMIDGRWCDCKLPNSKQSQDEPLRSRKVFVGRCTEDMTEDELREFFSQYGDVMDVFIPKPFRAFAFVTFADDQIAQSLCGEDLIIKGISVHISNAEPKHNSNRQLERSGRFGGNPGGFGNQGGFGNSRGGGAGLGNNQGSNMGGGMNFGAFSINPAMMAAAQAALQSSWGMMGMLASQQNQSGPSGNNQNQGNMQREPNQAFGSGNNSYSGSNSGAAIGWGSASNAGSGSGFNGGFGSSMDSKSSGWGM
Sequence of SKIV2L (Q15477 whole entry): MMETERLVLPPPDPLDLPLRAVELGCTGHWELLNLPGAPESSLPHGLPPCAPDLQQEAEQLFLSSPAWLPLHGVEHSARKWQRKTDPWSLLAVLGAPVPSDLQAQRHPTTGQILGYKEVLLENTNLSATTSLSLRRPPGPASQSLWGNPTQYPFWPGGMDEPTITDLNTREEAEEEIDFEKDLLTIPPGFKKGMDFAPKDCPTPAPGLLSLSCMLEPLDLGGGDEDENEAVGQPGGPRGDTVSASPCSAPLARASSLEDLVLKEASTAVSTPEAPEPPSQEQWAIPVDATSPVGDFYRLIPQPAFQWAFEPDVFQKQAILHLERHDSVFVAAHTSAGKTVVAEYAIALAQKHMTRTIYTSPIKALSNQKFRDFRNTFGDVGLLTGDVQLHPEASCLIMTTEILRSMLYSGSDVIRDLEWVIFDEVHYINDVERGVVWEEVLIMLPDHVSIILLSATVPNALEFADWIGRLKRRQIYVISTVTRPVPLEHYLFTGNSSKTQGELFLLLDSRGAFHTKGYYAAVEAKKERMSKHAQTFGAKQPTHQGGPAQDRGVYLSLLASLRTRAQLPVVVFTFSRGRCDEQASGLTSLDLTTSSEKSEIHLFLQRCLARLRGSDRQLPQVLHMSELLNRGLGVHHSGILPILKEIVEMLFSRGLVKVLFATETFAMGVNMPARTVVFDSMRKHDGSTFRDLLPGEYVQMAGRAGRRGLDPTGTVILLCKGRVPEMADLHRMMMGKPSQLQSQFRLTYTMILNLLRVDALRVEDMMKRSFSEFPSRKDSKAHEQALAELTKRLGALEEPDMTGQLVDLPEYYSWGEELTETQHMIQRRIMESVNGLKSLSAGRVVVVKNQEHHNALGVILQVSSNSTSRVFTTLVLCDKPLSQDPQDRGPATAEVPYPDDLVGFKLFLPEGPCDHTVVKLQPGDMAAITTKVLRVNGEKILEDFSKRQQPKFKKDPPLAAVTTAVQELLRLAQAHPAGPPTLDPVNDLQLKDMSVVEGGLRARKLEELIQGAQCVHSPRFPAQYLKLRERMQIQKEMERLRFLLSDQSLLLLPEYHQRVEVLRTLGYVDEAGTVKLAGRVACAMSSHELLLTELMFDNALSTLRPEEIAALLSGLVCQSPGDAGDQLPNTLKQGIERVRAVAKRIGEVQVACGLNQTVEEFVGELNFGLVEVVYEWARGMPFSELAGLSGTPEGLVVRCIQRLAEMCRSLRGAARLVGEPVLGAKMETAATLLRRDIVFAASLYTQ

Turning to AAUAAA, the figures for the Kd with SF3B2, in the data set with RBM47 and with ZRANB2 were 719 nM, 417 nM and 217 nM, respectively.

For CUGUCCU, the values for the Kd with MRPL22 and with MRPL49 were 67.4 nM and 37 nM, respectively.

For UAUUUAU, the dissociation constant (Kd) in the data set with SKIV2L was 902 nM; with CSTF1, 322 nM; in the data set with TARDBP, 1320 nM.

As a reminder, the Kd is the equilibrium constant for the complex coming apart. Low readings indicate tighter binding, high ones weaker binding.
